The chains are these.
B2: gpL (bacteriophage lambda, in the purified tail) (natural protein)
chain: MQDIRQETLNECTRAEQSASVVLWEIDLTEVGGERYFFCNEQNEKGEPVTWQGRQYQPYPIQGSGFELNGKGTSTRPTLTVSNLYGMVTGMAEDMQSLVGGTVVRRKVYARFLDAVNFVNGNSYADPEQEVISRWRIEQCSELSAVSASFVLSTPTETDGAVFPGRIMLANTCTWTYRGDECGYSGPAVADEYDQPTSDITKDKCSKCLSGCKFRNNVGNFGGFLSINKLSQ
notes: gpL of bacteriophage lambda; consists of HDI and 4Fe-4S domains; Three units in the tail tip; also called baseplate hub protein; source: E. coli BL21 (DE3) pLysS, as part of the purified lambda tail
B4: gpJ (bacteriophage lambda tip protein, in the purified tail) (natural protein)
chain: MGKGSSKGHTPREAKDNLKSTQLLSVIDAISEGPIEGPVDGLKSVLLNSTPVLDTEGNTNISGVTVVFRAGEQEQTPPEGFESSGSETVLGTEVKYDTPITRTITSANIDRLRFTFGVQALVETTSKGDRNPSEVRLLVQIQRNGGWVTEKDITIKGKTTSQYLASVVMGNLPPRPFNIRMRRMTPDSTTDQLQNKTLWSSYTEIIDVKQCYPNTALVGVQVDSEQFGSQQVSRNYHLRGRILQVPSNYNPQTRQYSGIWDGTFKPAYSNNMAWCLWDMLTHPRYGMGKRLGAADVDKWALYVIGQYCDQSVPDGFGGTEPRITCNAYLTTQRKAWDVLSDFCSAMRCMPVWNGQTLTFVQDRPSDKTWTYNRSNVVMPDDGAPFRYSFSALKDRHNAVEVNWIDPNNGWETATELVEDTQAIARYGRNVTKMDAFGCTSRGQAHRAGLWLIKTELLETQTVDFSVGAEGLRHVPGDVIEICDDDYAGISTGGRVLAVNSQTRTLTLDREITLPSSGTALISLVDGSGNPVSVEVQSVTDGVKVKVSRVPDGVAEYSVWELKLPTLRQRLFRCVSIRENDDGTYAITAVQHVPEKEAIVDNGAHFDGEQSGTVNGVTPPAVQHLTAEVTADSGEYQVLARWDTPKVVKGVSFLLRLTVTADDGSERLVSTARTTETTYRFTQLALGNYRLTVRAVNAWGQQGDPASVSFRIAAPAAPSRIELTPGYFQITATPHLAVYDPTVQFEFWFSEKQIADIRQVETSTRYLGTALYWIAASINIKPGHDYYFYIRSVNTVGKSAFVEAVGRASDDAEGYLDFFKGKITESHLGKELLEKVELTEDNASRLEEFSKEWKDASDKWNAMWAVKIEQTKDGKHYVAGIGLSMEDTEEGKLSQFLVAANRIAFIDPANGNETPMFVAQGNQIFMNDVFLKRLTAPTITSGGNPPAFSLTPDGKLTAKNADISGSVNANSGTLSNVTIAENCTINGTLRAEKIVGDIVKAASAAFPRQRESSVDWPSGTRTVTVTDDHPFDRQIVVLPLTFRGSKRTVSGRTTYSMCYLKVLMNGAVIYDGAANEAVQVFSRIVDMPAGRGNVILTFTLTSTRHSADIPPYTFASDVQVMVIKKQALGISVV
notes: Tip protein gpJ of bacteriophage lambda, 1132 residues: hub domains (HDII-ins1, HDII-ins2, HDII, HDIII, HDIV, OB), FNIII-1, FNIII-2, AHS, CSF, RBD; also called baseplate hub protein; central tail fiber protein; source: E. coli BL21 (DE3) pLysS, as part of the purified lambda tail

Data set [1] deals with the molecule itself. The data set can be described thus: cryo-EM structure; gpJ713 alone, closed state; C3 symmetry; map at 2.76 A.
In data set [2] the target is T1, E. coli LamB (E. coli, UniProt P02943 26-446).
T1 construct: LamB (maltoporin) of E. coli; own N-terminal signal peptide replaced by the OMPG signal peptide, Twin-Strep-tag after the signal peptide; also called ecLamB; E. coli's LamB; source: E. coli BL21 (DE3), isolated from the outer membrane in DDM, purified (Strep-Tactin XT, gel filtration); not shown: Twin-Strep-tag, N-terminal, kept
Briefly: BLI; His-tagged gpJ713 (2 ug/mL) captured on Ni-NTA sensors; five concentrations of Twin-Strep-tagged LamB in lysis buffer with 0.02% DDM; dissociation in the same buffer. Conditions: both partners purified.

Data set [3] deals with T2, E. coli LamB A384S (E. coli, UniProt P02943 26-446, A384S).
T2 construct: LamB (maltoporin) of E. coli with the single-point mutation A384S; the text says A384S; also called ecLamB A384S; source: E. coli BL21 (DE3), isolated from the outer membrane in DDM, purified (Strep-Tactin XT, gel filtration); not shown: Twin-Strep-tag, N-terminal, kept
Described as above. Conditions: both partners purified.

Data set [4] has as its target B4. Briefly: cryo-EM structure; purified lambda tail mixed with ssLamB in MSP2N2 nanodisc, room temperature 50 min, nickel column and Superose 6 Increase; open state of the tail. Particulars: both partners purified.
Data set [5] deals with the molecule itself. Described as above.
For data set [6], the target named is B2. The description is as above. Conditions: both partners purified.

B1: gpJ713 (C-terminal truncation of bacteriophage lambda gpJ, starting from residue 713) (domain or fragment, UniProt P03749 713-1132, looked up)
chain: APAAPSRIELTPGYFQITATPHLAVYDPTVQFEFWFSEKQIADIRQVETSTRYLGTALYWIAASINIKPGHDYYFYIRSVNTVGKSAFVEAVGRASDDAEGYLDFFKGKITESHLGKELLEKVELTEDNASRLEEFSKEWKDASDKWNAMWAVKIEQTKDGKHYVAGIGLSMEDTEEGKLSQFLVAANRIAFIDPANGNETPMFVAQGNQIFMNDVFLKRLTAPTITSGGNPPAFSLTPDGKLTAKNADISGSVNANSGTLSNVTIAENCTINGTLRAEKIVGDIVKAASAAFPRQRESSVDWPSGTRTVTVTDDHPFDRQIVVLPLTFRGSKRTVSGRTTYSMCYLKVLMNGAVIYDGAANEAVQVFSRIVDMPAGRGNVILTFTLTSTRHSADIPPYTFASDVQVMVIKKQALGISVV
notes: holds FNIIIs, AHS, CSF and RBD; Trimer (C3 symmetry in the closed state map); also called central tail fiber; His-tagged gpJ713; source: E. coli BL21 (DE3), purified (nickel gravity column, gel filtration); not shown: 6xHis, N-terminal, kept
On to B1, for which the “stoichiometry N” value in data set [1] came to 3. Further, the Kd in data set [2] is 1.76 nM. For the same molecule, the binding result in data set [3] is listed as “binds”.
Turning to B2, the binding result in data set [4] is “binds”.

B3: gpI (bacteriophage lambda, in the purified tail) (natural protein)
chain: MAATHTLPLASPGMARICLYGDLQRFGRRIDLRVKTGAEAIRALATQLPAFRQKLSDGWYQVRIAGRDVSTSGLTAQLHETLPDGAVIHIVPRVAGAKSGGVFQIVLGAAAIAGSFFTAGATLAAWGAAIGAGGMTGILFSLGASMVLGGVAQMLAPKARTPRIQTTDNGKQNTYFSSLDNMVAQGNVLPVLYGEMRVGSRVVSQEISTADEGDGGQVVVIGR
notes: gpI of bacteriophage lambda: unresolved N-terminal domain, helices H1 and H2, plug domain (159-175), beta-strands joined by loops; in the open structure only residues from 167 onward are seen; Three units in the tail tip; source: E. coli BL21 (DE3) pLysS, as part of the purified lambda tail
As for B3, in data set [4], the binding result is listed as “binds”.
Turning to B4, in data set [5], the “stoichiometry N” value was 3.

B5: gpM (bacteriophage lambda tail protein, in the purified tail) (natural protein)
chain: MKTFRWKVKPGMDVASVPSVRKVRFGDGYSQRAPAGLNANLKTYSVTLSVPREEATVLESFLEEHGGWKSFLWTPPYEWRQIKVTCAKWSSRVSMLRVEFSAEFEQVVN
notes: Tail protein gpM of bacteriophage lambda; also called gpM ring; gpM hexamer; source: E. coli BL21 (DE3) pLysS, as part of the purified lambda tail
For B5, the binding result in data set [4] and in data set [6] was “binds” each time. Besides, the “stoichiometry N” value in data set [5] stood at 6.

B6: Shigella sonnei 3070 LamB (receptor, UniProt Q3YUU9 26-446, looked up)
chain: VDFHGYARSGIGWTGSGGEQQCFQTTGAQSKYRLGNECETYAELKLGQEVWKEGDKSFYFDTNVAYSVAQQNDWEATDPAFREANVQGKNLIEWLPGSTIWAGKRFYQRHDVHMIDFYYWDISGPGAGLENIDVGFGKLSLAATRSSEAGGSSSFASNNIYDYTNETANDVFDVRLAQMEINPGGTLELGVDYGRANLRDNYRLVDGASKDGWLFTAEHTQSVLKGFNKFVVQYATDSMTSQGKGLSQGSGVAFDNEKFAYNINNNGHMLRILDHGAISMGDNWDMMYVGMYQDINWDNDNGTKWWTVGIRPMYKWTPIMSTVMEIGYDNVESQRTGDKNNQYKITLAQQWQAGDSIWSRPAIRVFATYAKWDEKWGYDYNGDSKVNPNYGKAVPADFNGGSFGRGDSDEWTFGAQMEIWW
notes: LamB (maltoporin) of Shigella sonnei 3070; own N-terminal signal peptide replaced by the OMPG signal peptide, Twin-Strep-tag after the signal peptide; differs from E. coli LamB in seven amino acids within the 381-390 region; Used in 0.02% DDM for BLI and for the gpJ713 complex, and in an MSP2N2 nanodisc (E. coli polar lipids) for the tail complex; also called ssLamB; LamB from Shigella sonnei …
As for B6, in data set [5], the “stoichiometry N” value was found to be 3.

Source of the values: publication PMC11101478, “Structural mechanism of bacteriophage lambda tail’s interaction with the bacterial receptor” (Nature Communications, 2024).
